Reference: PMC6753193 (2019)
Where no end group is shown, it is not given here. [ ]: non-standard residue; d: D form. pS = N[C@@H](COP(=O)(O)O)C(=O)O

Target: recombinant human PP1α (residues 7–300) (human, UniProt P62136 7-300)
Assay: SPR

Chain of recombinant human PP1α (residues 7–300) (P62136 7-300): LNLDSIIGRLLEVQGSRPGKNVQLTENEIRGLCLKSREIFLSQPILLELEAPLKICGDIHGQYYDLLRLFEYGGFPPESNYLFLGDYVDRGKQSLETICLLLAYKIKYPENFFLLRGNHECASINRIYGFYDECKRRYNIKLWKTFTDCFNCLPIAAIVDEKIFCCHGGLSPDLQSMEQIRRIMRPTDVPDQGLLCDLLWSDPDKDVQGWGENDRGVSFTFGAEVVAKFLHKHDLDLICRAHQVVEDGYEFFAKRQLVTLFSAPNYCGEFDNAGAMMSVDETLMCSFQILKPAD

For HIPR[pS]PYKFPSSPLRKKCCFHCQVCFITK (cysteine pairing not given here) [pRb-Tat hybrid peptide], the koff was 0.00394 s⁻¹.
